Tests used:
HeLa Kyoto [1] = test: thermal stability score vs G1/S (z-score of summed log2 fold changes over temperatures); higher = more thermally stable than in G1/S
HeLa Kyoto [2] = test: melting temperature (median over replicates), in situ; higher = more thermally stable
[3] = cell cycle stage: early G1 (4.5 h after nocodazole release)
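For melting temperature (median over replicates), in situ in this document: HeLa Kyoto cells synchronized by double thymidine or nocodazole block, proteins quantified by TMT10plex mass spectrometry, three independent biological replicates.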
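For thermal stability score vs G1/S (z-score of summed log2 fold changes over temperatures) in this document: synchronized HeLa Kyoto cells, proteins quantified by TMT10plex mass spectrometry, three biological replicates, mitosis taken 0.5 h after nocodazole release, G1/S directly after double thymidine block.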

| Substance | thermal stability score (HeLa Kyoto [1]; [3]) | thermal stability score (HeLa Kyoto [1]; cell cycle stage: mitosis) | melting temperature (HeLa Kyoto [2]; cell cycle stage: mitosis) [°C] | melting temperature (HeLa Kyoto [2]; cell cycle stage: G1/S) [°C] |
| --- | --- | --- | --- | --- |
| MNCRSEVLEVSVEGRQVEEAMLAVLHTVLLHRSTGKFHYKKEGTYSIGTVGTQDVDCDFIDFTYVRVSSEELDRALRKVVGEFKDALRNSGGDGLGQMSLEFYQKKKSRWPFSDECIPWEVWTVKVHVVALATEQERQICREKVGEKLCEKIINIVEVMNRHEYLPKMPTQSEVDNVFDTGLRDVQPYLYKISFQITDALGTSVTTTMRRLIKDTLAL [ATG101] | 0.111 | 1.17 | – | – |
| MRRGERRDAGGPRPESPVPAGRASLEEPPDGPSAGQATGPGEGRRSTESEVYDDGTNTFFWRAHTLTVLFILTCTLGYVTLLEETPQDTAYNTKRGIVASILVFLCFGVTQAKDGPFSRPHPAYWRFWLCVSVVYELFLIFILFQTVQDGRQFLKYVDPKLGVPLPERDYGGNCLIYDPDNETDPFHNIWDKLDGFVPAHFLGWYLKTLMIRDWWMCMIISVMFEFLEYSLEHQLPNFSECWWDHWIMDVLVCNGLGIYCGMKTLEWLSLKTYKWQGLWNIPTYKGKMKRIAFQFTPYSWVRFEWKPASSLRRWLAVCGIILVFLLAELNTFYLKFVLWMPPEHYLVLLRLVFFVNVGGVAMREIYDFMDDPKPHKKLGPQAWLVAAITATELLIVVKYDPHTLTLSLPFYISQCWTLGSVLALTWTVWRFFLRDITLRYKETRWQKWQNKDDQGSTVGNGDQHPLGLDEDLLGPGVAEGEGAPTPN [PTDSS2] | -0.906 | -3.56 | – | – |
| SPG11 | -0.413 | -0.459 | – | – |
| MAAAVAAALARLLAAFLLLAAQVACEYGMVHVVSQAGGPEGKDYCILYNPQWAHLPHDLSKASFLQLRNWTASLLCSAADLPARGFSNQIPLVARGNCTFYEKVRLAQGSGARGLLIVSRERLVPPGGNKTQYDEIGIPVALLSYKDMLDIFTRFGRTVRAALYAPKEPVLDYNMVIIFIMAVGTVAIGGYWAGSRDVKKRYMKHKRDDGPEKQEDEAVDVTPVMTCVFVVMCCSMLVLLYYFYDLLVYVVIGIFCLASATGLYSCLAPCVRRLPFGKCRIPNNSLPYFHKRPQARMLLLALFCVAVSVVWGVFRNEDQWAWVLQDALGIAFCLYMLKTIRLPTFKACTLLLLVLFLYDIFFVFITPFLTKSGSSIMVEVATGPSDSATREKLPMVLKVPRLNSSPLALCDRPFSLLGFGDILVPGLLVAYCHRFDIQVQSSRVYFVACTIAYGVGLLVTFVALALMQRGQPALLYLVPCTLVTSCAVALWRRELGVFWTGSGFAKVLPPSPWAPAPADGPQPPKDSATPLSPQPPSEEPATSPWPAEQSPKSRTSEEMGAGAPMREPGSPAESEGRDQAQPSPVTQPGASA [SPPL2B] | 0.962 | -2.37 | – | – |
| MKSLVLLLCLAQLWGCHSAPHGPGLIYRQPNCDDPETEEAALVAIDYINQNLPWGYKHTLNQIDEVKVWPQQPSGELFEIEIDTLETTCHVLDPTPVARCSVRQLKEHAVEGDCDFQLLKLDGKFSVVYAKCDSSPDSAEDVRKVCQDCPLLAPLNDTRVVHAAKAALAAFNAQNNGSNFQLEEISRAQLVPLPPSTYVEFTVSGTDCVAKEATEAAKCNLLAEKQYGFCKATLSEKLGGAEVAVTCMVFQTQPVSSQPQPEGANEAVPTPVVDPDAPPSPPLGAPGLPPAGSPPDSHVLLAAPPGHQLHRAHYDLRHTFMGVVSLGSPSGEVSHPRKTRTVVQPSVGAAAGPVVPPCPGRIRHFKV [AHSG] | -0.0372 | -0.632 | – | – |
| MAAQGEPGYLAAQSDPGSNSERSTDSPVPGSEDDLVAGATLHSPEWSEERFRVDRKKLEAMLQAAAEGKGRSGEDFFQKIMEETNTQIAWPSKLKIGAKSKKDPHIKVSGKKEDVKEAKEMIMSVLDTKSNRVTLKMDVSHTEHSHVIGKGGNNIKKVMEETGCHIHFPDSNRNNQAEKSNQVSIAGQPAGVESARVRIRELLPLVLMFELPIAGILQPVPDPNSPSIQHISQTYNISVSFKQRSRMYGATVIVRGSQNNTSAVKEGTAMLLEHLAGSLASAIPVSTQLDIAAQHHLFMMGRNGSNIKHIMQRTGAQIHFPDPSNPQKKSTVYLQGTIESVCLARQYLMGCLPLVLMFDMKEEIEVDPQFIAQLMEQLDVFISIKPKPKQPSKSVIVKSVERNALNMYEARKCLLGLESSGVTIATSPSPASCPAGLACPSLDILASAGLGLTGLGLLGPTTLSLNTSTTPNSLLNALNSSVSPLQSPSSGTPSPTLWAPPLANTSSATGFSAIPHLMIPSTAQATLTNILLSGVPTYGHTAPSPPPGLTPVDVHINSMQTEGKKISAALNGHAQSPDIKYGAISTSSLGEKVLSANHGDPSIQTSGSEQTSPKSSPTEGCNDAFVEVGMPRSPSHSGNAGDLKQMMCPSKVSCAKRQTVELLQGTKNSHLHSTDRLLSDPELSATESPLADKKAPGSERAAERAAAAQQNSERAHLAPRSSYVNMQAFDYEQKKLLATKAMLKKPVVTEVRTPTNTWSGLGFSKSMPAETIKELRRANHVSYKPTMTTTYEGSSMSLSRSNSREHLGGGSESDNWRDRNGIGPGSHSEFAASIGSPKRKQNKSTEHYLSSSNYMDCISSLTGSNGCNLNSSFKGSDLPELFSKLGLGKYTDVFQQQEIDLQTFLTLTDQDLKELGITTFGARRKMLLAISELNKNRRKLFESPNARTSFLEGGASGRLPRQYHSDIASVSGRW [BICC1] | -0.0285 | 0.296 | – | – |
| MALCEAAGCGSALLWPRLLLFGDSITQFSFQQGGWGASLADRLVRKCDVLNRGFSGYNTRWAKIILPRLIRKGNSLDIPVAVTIFFGANDSALKDENPKQHIPLEEYAANLKSMVQYLKSVDIPENRVILITPTPLCETAWEEQCIIQGCKLNRLNSVVGEYANACLQVAQDCGTDVLDLWTLMQDSQDFSSYLSDGLHLSPKGNEFLFSHLWPLIEKKVSSLPLLLPYWRDVAEAKPELSLLGDGDH [IAH1] | 0.993 | -0.17 | – | – |
| KIAA0100 | 1.31 | 1.36 | – | – |
| MNSGVAMKYGNDSSAELSELHSAALASLKGDIVELNKRLQQTERERDLLEKKLAKAQCEQSHLMREHEDVQERTTLRYEERITELHSVIAELNKKIDRLQGTTIREEDEYSELRSELSQSQHEVNEDSRSMDQDQTSVSIPENQSTMVTADMDNCSDLNSELQRVLTGLENVVCGRKKSSCSLSVAEVDKHIEQLTTASEHCDLAIKTVEEIEGVLGRDLYPNLAEERSRWEKELAGLREENESLTAMLCSKEEELNRTKATMNAIREERDRLRRRVRELQTRLQSVQATGPSSPGRLTSTNRPINPSTGELSTSSSSNDIPIAKIAERVKLSKTRSESSSSDRPVLGSEISSIGVSSSVAEHLAHSLQDCSNIQEIFQTLYSHGSAISESKIREFEVETERLNSRIEHLKSQNDLLTITLEECKSNAERMSMLVGKYESNATALRLALQYSEQCIEAYELLLALAESEQSLILGQFRAAGVGSSPGDQSGDENITQMLKRAHDCRKTAENAAKALLMKLDGSCGGAFAVAGCSVQPWESLSSNSHTSTTSSTASSCDTEFTKEDEQRLKDYIQQLKNDRAAVKLTMLELESIHIDPLSYDVKPRGDSQRLDLENAVLMQELMAMKEEMAELKAQLYLLEKEKKALELKLSTREAQEQAYLVHIEHLKSEVEEQKEQRMRSLSSTSSGSKDKPGKECADAASPALSLAELRTTCSENELAAEFTNAIRREKKLKARVQELVSALERLTKSSEIRHQQSAEFVNDLKRANSNLVAAYEKAKKKHQNKLKKLESQMMAMVERHETQVRMLKQRIALLEEENSRPHTNETSL [MCC] | 0.157 | -0.438 | – | – |
| HRNR | 5.84 | 1.12 | – | – |
| MAPQRRAATKAPEGNGAAERRNRSSTKKDRAPREVQRLWQRPWLRTAGLGAGFVLTALLLWSSLGADDGVAEVLARRGEVVAGRFIEVPCSEDYDSHRRFEGCTPRKCGRGVTDVVITREEAERIRSVAEKGLSLGGSDGGASILDLHSGALSVGKHFVNLYRYFGDKIQNIFSEEDFRLYREVRQKVQLTIAEAFGISASSLHLTKPTFFSRINSTEARTAHDEYWHAHVDKVTYGSFDYTSLLYLSNYLEDFGGGRFMFMEEGANKTVEPRAGRVSFFTSGSENLHRVEKVHWGTRYAITIAFSCNPDHGIEDPAFP [OGFOD3] | – | – | 53.1 | – |
| MGEFKVHRVRFFNYVPSGIRCVAYNNQSNRLAVSRTDGTVEIYNLSANYFQEKFFPGHESRATEALCWAEGQRLFSAGLNGEIMEYDLQALNIKYAMDAFGGPIWSMAASPSGSQLLVGCEDGSVKLFQITPDKIQFERNFDRQKSRILSLSWHPSGTHIAAGSIDYISVFDVKSGSAVHKMIVDRQYMGVSKRKCIVWGVAFLSDGTIISVDSAGKVQFWDSATGTLVKSHLIANADVQSIAVADQEDSFVVGTAEGTVFHFQLVPVTSNSSEKQWVRTKPFQHHTHDVRTVAHSPTALISGGTDTHLVFRPLMEKVEVKNYDAALRKITFPHRCLISCSKKRQLLLFQFAHHLELWRLGSTVATGKNGDTLPLSKNADHLLHLKTKGPENIICSCISPCGSWIAYSTVSRFFLYRLNYEHDNISLKRVSKMPAFLRSALQILFSEDSTKLFVASNQGALHIVQLSGGSFKHLHAFQPQSGTVEAMCLLAVSPDGNWLAASGTSAGVHVYNVKQLKLHCTVPAYNFPVTAMAIAPNTNNLVIAHSDQQVFEYSIPDKQYTDWSRTVQKQGFHHLWLQRDTPITHISFHPKRPMHILLHDAYMFCIIDKSLPLPNDKTLLYNPFPPTNESDVIRRRTAHAFKISKIYKPLLFMDLLDERTLVAVERPLDDIIAQLPPPIKKKKFGT [UTP4] | – | – | 52.3 | 54.3 |
| MAGSDTAPFLSQADDPDDGPVPGTPGLPGSTGNPKSEEPEVPDQEGLQRITGLSPGRSALIVAVLCYINLLNYMDRFTVAGVLPDIEQFFNIGDSSSGLIQTVFISSYMVLAPVFGYLGDRYNRKYLMCGGIAFWSLVTLGSSFIPGEHFWLLLLTRGLVGVGEASYSTIAPTLIADLFVADQRSRMLSIFYFAIPVGSGLGYIAGSKVKDMAGDWHWALRVTPGLGVVAVLLLFLVVREPPRGAVERHSDLPPLNPTSWWADLRALARNPSFVLSSLGFTAVAFVTGSLALWAPAFLLRSRVVLGETPPCLPGDSCSSSDSLIFGLITCLTGVLGVGLGVEISRRLRHSNPRADPLVCATGLLGSAPFLFLSLACARGSIVATYIFIFIGETLLSMNWAIVADILLYVVIPTRRSTAEAFQIVLSHLLGDAGSPYLIGLISDRLRRNWPPSFLSEFRALQFSLMLCAFVGALGGAAFLGTAIFIEADRRRAQLHVQGLLHEAGSTDDRIVVPQRGRSTRVPVASVLI [SPNS1] | – | – | 62 | – |
| MLQQDSNDDTEDVSLFDAEEETTNRPRKAKIRHPVASFFHLFFRVSAIIVYLLCGLLSSSFITCMVTIILLLSCDFWAVKNVTGRLMVGLRWWNHIDEDGKSHWVFESRKESSQENKTVSEAESRIFWLGLIACPVLWVIFAFSALFSFRVKWLAVVIMGVVLQGANLYGYIRCKVRSRKHLTSMATSYFGKQFLRQNTGDDQTS [TVP23B] | – | – | 56 | – |
| MNCEREQLRGNQEAAAAPDTMAQPYASAQFAPPQNGIPAEYTAPHPHPAPEYTGQTTVPEHTLNLYPPAQTHSEQSPADTSAQTVSGTATQTDDAAPTDGQPQTQPSENTENKSQPKRLHVSNIPFRFRDPDLRQMFGQFGKILDVEIIFNERGSKGFGFVTFENSADADRAREKLHGTVVEGRKIEVNNATARVMTNKKTVNPYTNGWKLNPVVGAVYSPEFYAGTVLLCQANQEGSSMYSAPSSLVYTSAMPGFPYPAATAAAAYRGAHLRGRGRTVYNTFRAAAPPPPIPAYGGVVYQDGFYGADIYGGYAAYRYAQPTPATAAAYSDSYGRVYAADPYHHALAPAPTYGVGAMNAFAPLTDAKTRSHADDVGLVLSSLQASIYRGGYNRFAPY [RBFOX1] | – | – | – | 49.8 |

Reference: the supplement of paper PMC5998384
